US11098105 (Zymeworks, dated 2021)
Where a chain is given by its changes, count along the chain named.

T1: FcγRIIaH (UniProt P12318 36-218)
T1 construct: also called 2aH; 2ah
T1 sequence (looked up): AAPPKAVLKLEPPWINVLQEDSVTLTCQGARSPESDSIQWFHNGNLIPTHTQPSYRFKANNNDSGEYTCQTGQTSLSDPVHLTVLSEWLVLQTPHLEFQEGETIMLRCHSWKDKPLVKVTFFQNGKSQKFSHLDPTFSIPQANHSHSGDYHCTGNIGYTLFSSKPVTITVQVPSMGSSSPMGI

T2: FcγRIIaR (UniProt P12318 36-218)
T2 construct: also called 2aR; 2ar
T2 sequence (looked up): T1 sequence (looked up) with H132R

T3: FcγRIIb (UniProt P31994 46-217)
T3 construct: also called 2b; CD32b
T3 sequence (looked up): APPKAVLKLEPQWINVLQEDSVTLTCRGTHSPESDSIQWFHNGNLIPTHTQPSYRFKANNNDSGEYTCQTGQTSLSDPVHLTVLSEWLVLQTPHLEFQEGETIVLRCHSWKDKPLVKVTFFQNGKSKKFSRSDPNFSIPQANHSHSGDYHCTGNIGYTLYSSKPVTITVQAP

B1: Control WT Rituximab 1261 (antibody, human IgG1, kappa)
heavy 1: QVQLQQPGAELVKPGASVKMSCKASGYTFTSYNMHWVKQTPGRGLEWIGAIYPGNGDTSYNQKFKGKATLTADKSSSTAYMQLSSLTSEDSAVYYCARSTYYGGDWYFNVWGAGTTVTVSAASTKGPSVFPLAPSSKSTSGGTAALGCLVKDYFPEPVTVSWNSGALTSGVHTFPAVLQSSGLYSLSSVVTVPSSSLGTQTYICNVNHKPSNTKVDKKVEPKSCDKTHTCPPCPAPELLGGPSVFLFPPKPKDTLMISRTPEVTCVVVDVSHEDPEVKFNWYVDGVEVHNAKTKPREEQYNSTYRVVSVLTVLHQDWLNGKEYKCKVSNKALPAPIEKTISKAKGQPREPQVYVYPPSRDELTKNQVSLTCLVKGFYPSDIAVEWESNGQPENNYKTTPPVLDSDGSFALVSKLTVDKSRWQQGNVFSCSVMHEALHNHYTQKSLSLSPGK
heavy 2: not shown
light: QIVLSQSPAILSASPGEKVTMTCRASSSVSYIHWFQQKPGSSPKPWIYATSNLASGVPVRFSGSGSGTSYSLTISRVEAEDAATYYCQQWTSNPPTFGGGTKLEIKRTVAAPSVFIFPPSDEQLKSGTASVVCLLNNFYPREAKVQWKVDNALQSGNSQESVTEQDSKDSTYSLSSTLTLSKADYEKHKVYACEVTHQGLSSPVTKSFNRGEC
notes: also called v1261; V1261
B2: AAC10, rituximab-based asymmetric antibody construct (antibody, human IgG1, kappa)
heavy 1: B1 heavy 1 with L238D, L239E, D269S
heavy 2: B1 heavy 1 with E237K, L238R, L239R, D269S, Y355L, T370L, K396L, T398W, A409F, V411Y
light: B1 light
B3: AAC11, rituximab-based asymmetric antibody construct (antibody, human IgG1, kappa)
heavy 1: B1 heavy 1 with L238D, L239E, E273K
heavy 2: B1 heavy 1 with E237K, L238R, L239R, E273K, Y355L, T370L, K396L, T398W, A409F, V411Y
light: B1 light
B4: AAC12, rituximab-based asymmetric antibody construct (antibody, human IgG1, kappa)
heavy 1: B1 heavy 1 with L238D, L239E, K326A
heavy 2: B1 heavy 1 with E237K, L238R, L239R, K326A, Y355L, T370L, K396L, T398W, A409F, V411Y
light: B1 light
B5: AAC15, rituximab-based asymmetric antibody construct (antibody, human IgG1, kappa)
heavy 1: B1 heavy 1 with L238D, L239E, D269S, E273K, K326E, E337K
heavy 2: QVQLQQPGAELVKPGASVKMSCKASGYTFTSYNMHWVKQTPGRGLEWIGAIYPGNGDTSYNQKFKGKATLTADKSSSTAYMQLSSLTSEDSAVYYCARSTYYGGDWYFNVWGAGTTVTVSAASTKGPSVFPLAPSSKSTSGGTAALGCLVKDYFPEPVTVSWNSGALTSGVHTFPAVLQSSGLYSLSSVVTVPSSSLGTQTYICNVNHKPSNTKVDKKVEPKSCDKTHTCPPCPAPKRRGGPSVFLFPPKPKDTLMISRTPEVTCVVVSVSHKDPEVKFNWYVDGVEVHNAKTKPREEQYNSTYRVVSVLTVLHQDWLNGKEYKCEVSNKALPAPIKKTISKAKGQPREPQVYVLPPSRDELTKNQVSLLCLVKGFYPSDIAVEWESNGQPENNYLTWPPVLDSDGSFFLYSKLTVDKSRWQQGNVFSCSVMHEALHNHYTQKSLSLSPGK
light: B1 light
B6: AAC14, rituximab-based asymmetric antibody construct (antibody, human IgG1, kappa)
heavy 1: B1 heavy 1 with L238D, L239E, D269S, E273K, K326A
heavy 2: B5 heavy 2 with E326A, K337E
light: B1 light
B7: AAC9, rituximab-based asymmetric antibody construct (antibody, human IgG1, kappa)
heavy 1: B1 heavy 1 with L238D, L239E
heavy 2: B5 heavy 2 with S269D, K273E, E326K, K337E
light: B1 light
B8: AAC13, rituximab-based asymmetric antibody construct (antibody, human IgG1, kappa)
heavy 1: B1 heavy 1 with L238D, L239E, P333W
heavy 2: B5 heavy 2 with S269D, K273E, E326K, P333W, K337E
light: B1 light

Molecular target: CD16a(158V/V) on NK92 effector cells (UniProt P08637 17-254, limits assumed)
Test: cell-based or functional assay

ADCC EC50 [nM], Daudi cells, NK92/CD16a(158V/V) effector cells [nM] | ADCC Maximum Lysis, Daudi cells, NK92/CD16a(158V/V) effector cells [% cell lysis] | Binder
0.1 | 66 | B1
7.4 | 45 | B2
> 100 |  | B3
23.1 | 20 | B4

Molecular target: Human C1q (human, UniProt P02745 23-245; P02746 28-253; P02747 29-245)
Test: cell-based or functional assay

Sequence of Human C1q (P02745 23-245 limits assumed, chain 1 of 3): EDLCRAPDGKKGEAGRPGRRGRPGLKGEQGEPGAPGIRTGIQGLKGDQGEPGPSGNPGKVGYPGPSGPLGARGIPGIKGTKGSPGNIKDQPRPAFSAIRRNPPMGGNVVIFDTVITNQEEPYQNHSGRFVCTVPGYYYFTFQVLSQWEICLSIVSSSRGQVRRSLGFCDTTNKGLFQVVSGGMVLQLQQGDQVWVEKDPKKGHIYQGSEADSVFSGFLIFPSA
Sequence of Human C1q (P02746 28-253 limits assumed, chain 2 of 3): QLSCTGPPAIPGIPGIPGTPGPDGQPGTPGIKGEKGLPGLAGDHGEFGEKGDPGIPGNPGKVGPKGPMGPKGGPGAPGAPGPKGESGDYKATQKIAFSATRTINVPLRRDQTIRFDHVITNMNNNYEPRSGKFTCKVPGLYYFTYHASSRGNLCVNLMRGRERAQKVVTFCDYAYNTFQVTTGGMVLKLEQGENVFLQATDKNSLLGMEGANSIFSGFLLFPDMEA
Sequence of Human C1q (P02747 29-245 limits assumed, chain 3 of 3): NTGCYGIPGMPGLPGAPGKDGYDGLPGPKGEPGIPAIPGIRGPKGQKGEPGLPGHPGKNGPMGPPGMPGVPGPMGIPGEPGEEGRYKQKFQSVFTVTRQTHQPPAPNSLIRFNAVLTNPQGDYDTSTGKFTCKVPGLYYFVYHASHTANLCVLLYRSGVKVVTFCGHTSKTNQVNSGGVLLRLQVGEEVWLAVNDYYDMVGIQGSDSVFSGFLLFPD

CDC EC50 [nM], Daudi cells, 10% normal human serum [nM] | CDC Maximum Lysis, Daudi cells, 10% normal human serum [% cell lysis] | Binder
2.9 | 96 | B1
~55.9 | 43 | B5
82.8 | 79 | B2
69.7 | 72 | B6
51.6 | 63 | B3
54.6 | 67 | B4
47.9 | 68 | B7

Molecular target: T1, FcγRIIaH
Test: SPR, antibody captured by goat anti-IgG, FcγR injected

binding result | Binder
no binding | B5
no binding | B2
no binding | B6
no binding | B8
no binding | B3
no binding | B4
no binding | B7

Molecular target: T2, FcγRIIaR
Test: as above

binding result | Binder
no binding | B5
no binding | B2
no binding | B6
no binding | B8
no binding | B3
no binding | B4
no binding | B7

Molecular target: T3, FcγRIIb
Test: as above

binding result | Binder
no binding | B5
no binding | B2
no binding | B6
no binding | B8
no binding | B3
no binding | B4
no binding | B7

Molecular target: T4, FcγRIIIaF (UniProt P08637 17-208)
T4 construct: also called 3aF; 3af
Test: as above

binding result | Binder
no binding | B5
no binding | B2
no binding | B6
no binding | B8
no binding | B3
no binding | B4
no binding | B7

Molecular target: T1, FcγRIIaH
Test: SPR, antibody captured by goat anti-IgG, FcγR injected, equilibrium fit
Description: (§1) Affinity of FcgR to antibody Fc was measured by SPR using a ProteOn XPR36 at 25° C. with PBS containing 3.4 mM EDTA, and 0.05% Tween 20 at pH 7.4 as the running buffer. […] 40 μg/mL of purified rituximab-based antibodies were indirectly captured by injecting at 25 μL/min for 240s (resulting in approx. 500RUs capture) in the ligand direction, following a buffer injection to establish a stable baseline in the analyte direction. FcγRs were subsequently injected at 50 μL/min for 120s with a 180s dissociation phase to obtain a set of binding sensorgrams. Resultant Kd (affinity) values were determined from double-referenced sensorgrams using the Equilibrium Fit model in the Proteon Manager software. Reported values as the mean of two or three independent runs.

SPR Ka ratio with respect to wild-type trastuzumab | Binder
1.87 | B1

Molecular target: T2, FcγRIIaR
Test: as above
Description: as §1

SPR Ka ratio with respect to wild-type trastuzumab | Binder
1.47 | B1

Molecular target: T3, FcγRIIb
Test: as above
Description: as §1

SPR Ka ratio with respect to wild-type trastuzumab | Binder
1.85 | B1

Molecular target: T4, FcγRIIIaF
Test: as above
Description: as §1

SPR Ka ratio with respect to wild-type trastuzumab | Binder
1.36 | B1

Molecular target: T5, FcγRIIIaV (UniProt P08637 17-208)
T5 construct: also called 3aV; 3av
Test: as above
Description: as §1

SPR Ka ratio with respect to wild-type trastuzumab | Binder
1.34 | B1
0.08 | B4
0.08 | B7
